This data set can be described thus: soluble on expression in E. coli; label from the status in PepcDB or PDB records.
As for “PESPLRSGRREIANILGVAAQVQRQVAEALRNNNTDGIVDALVRARGTQGQINQMIAAANMGKETIQASPLLWAQRQRIRSMMRILNPVDNAMRNTRVLARRALVLCEDNDEVSGRQIQIIEQLAEVSEDLSNLYYGNSKLSENAEIPRLVNNLKMIGSRTGLEVSEGKVLSAQVVLAQSRSLVVDLLQICGQSRRSAVEILSPTSMHPASVKEIWNDDV”, the “soluble on expression in E. coli” value was “not soluble”. The result for “MGSDKIHHHHHHMTKIKHIFSDLDGTLLDDQGKISKKTQEVIENSNLPFSLVSARAPQAMESLINQLNLKSSQVAFNGGLIFAKNEVIKANPMVHASAQELIKTIKKDYPEINLSLYSLSDWYVEKIDKDIEQEMQFTPQVPKLVDLETLITERPRLEIFKILLITPNESKLEEIKKHLEKLNFPDIIIQKTWETYLEITHLEAQKAKAVQFIAQREQLEQSELAAFGDNENDLSMLKAVGLPIVMANASDDLKKIGKVITKSNTEDGVAYGIQKYITDSLF” reads “not soluble”; that for “MTGRIVHFEIPFDDGDRARAFYRDAFGWAIAEIPDMDYSMVTTGPVGESGMPDEPGYINGGMMQRGEVTTPVVTVDVESIESALERIESLGGKTVTGRTPVGNMGFAAYFTDSEGNVVGLWETAR”, “soluble”; that for “MAHHHHHHMSIAASSARKDGPHHPSSGLTGKETLQDARKMEYRASTLEAGGNDMECLQLMETALQIRCKEYGTGSSSPELLKEACDAAERVVMKCNVLGVKLFKEGKYDVATPLFGYAMEMTGEGSFPLRKDDERRRRLRGVTLNNHGCMERHRGHFSTALDYMQQSMQCTGQQSPVAFLNISAVQVQLRLCEEAAHSAVCAIQSLGPNPEDPSLLAVAHHNLAMALELIDPPRAHEEYRLALGLAQNTISRRSEVTRTIESNMQRFVMVLHECRPGNSALTGTNSPRSSCGHTLFVSPRSCSRERSPSGRDAASRTHRVDIFPHPFAVSAKETVAKRSISRPARADAGHPPKRLTSLSPMN”, “not soluble”. For the sequence “MNFNGSLFERLADKTQKKTDLNEEERITASIATHLAKLLGTRAGSVNTLPDYGLPELNNASLSAHDTVRQSRLAIEKAIRDYEPRLSEVHVMSDESSWCVLKRTFSIDASLDMNGVKKTVVFSIAVAGDGHVILN”, the “soluble on expression in E. coli” value was “not soluble”. The result for “MATIRDVAKRAGVSVATVSRVLNQNGYVNEETERRVRQAMKELNYKPNEVARALFKKTSKTVGLIVPDITNPFFPELVRAVEDVMNIYDYTVILCNSDEKVEKEREYIEVLKQKYVDGVILTTNQFAPEEVEEWDVPIVVLDRPLHERYPSVVADNYEGARLATRHLYEVGCRRIAHIQGPNHVVNAMERFRGYQDEMRALGLGDRQLVIQGNYQLKQAKEAVMAALAEHDMDGIFAGNDAMAVGALKAVQQCGLRVPDDIAIIGYDGIPLTEMTTPELSTVSQPIYEMGAMAARILIKQIEGKPLEKLHYQLPVQLVVRQSTSRRGLT” reads “soluble”; that for “MGSSHHHHHHSSGLVPRGSHQPALAAEPAQLRIGYQKAVSSLVLAKQHRLLEQRFPRTKITWVEFPAGPQLLEALNVGSIDLGGAGDIPPLFAQAAGADLLYVGWVPPTPKAETILVPSKSALRTVADLKGKRIAFQKGSSAHNLLLRVLAKSGLSMRDITPLYLSPANARAAFAAGQVDAWAIWDPWYSALTLDGSARLLANGEGLGLTGGFFLSSRRYATAWGPFVQQVMGTLNQADGLLERDRAGSIKTLAQVSGLPPAVVERTLAHRPPASVQPLSAQVIKAQQATADLFYAQRLLPKRVLVAPAVWRAPDAGTAQAVSK”, “soluble”. With “MPMTDLPSAVTNERTEQTNTTNEQQESKGFDYLIVGAGFAGSVLAERLASSGQRVLIVDRRPHIGGNAYDCYDDAGVLIHPYGPHIFHTNSKDVFEYLSRFTEWRPYQHRVLASVDGQLLPIPINLDTVNRLYGLNLTSFQVEEFFASVAEKVEQVRTSEDVVVSKVGRDLYNKFFRGYTRKQWGLDPSELDASVTARVPTRTNRDNRYFADTYQAMPLHGYTRMFQNMLSSPNIKVMLNTDYREIADFIPFQHMIYTGPVDAFFDFCYGKLPYRSLEFRHETHDTEQLLPTGTVNYPNDYAYTRVSEFKHITGQRHHQTSVVYEYPRAEGDPYYPVPRPENAELYKKYEALADAAQDVTFVGRLATYRYYNMDQVVAQALATFRRLQGQPEQGNAE”, the “soluble on expression in E. coli” value is “soluble”. Then “MGSDKIHHHHHHMNSNFLSSYPRDVIAVLVKDDQPLEQPKCNVRLAEFTYATVGVNGEPTTASAAMLVPGGPQCQGPYPLLGWGDGTQTLRRDEMAKDIRDAKGNDPLVTHLASQGYVVVSTDYLGLGKSSYPFHPYLHSATEANAMIDALRAARTVLDRLNTPLSGKVMLSGYSVGGHAAMASQREIEAHLSKEFNLVASAPIAGPYALEQTFVDSWSGRNTVGESTFGLVLASYAIVGMQHAYQNIYTAPSQVFRAPWAATVESQFPGTKSLLDLFVDLPEIGKVKQYFQADFYRDFASNPNNPFRKDLARNDLLDWRPRTKTLLCGSSNDATVPLKNATTAIAAFEQRGSTQVSLVDLGTGKASDNSAGEHLAIKDSCIVAVRQQLLDKQR”, with “not soluble”; and “MGSDKIHHHHHHMTLVASSCTDVLDQMPTTEDTSKEVYADAANYKKVLAKIYASYVLAGQGQGGDNGDLKSINKQDFSRGYFNLQEAATDEVANTWLSGNNLSDLTYISWDAKDSWVSDSYYWLFFNIALCNEFLRHCSDEEIARFSEAEQTEIRTFRSEARFMRSFSYWMVLDLYRQGPKVDENTPVIGYIPEAYDGIGMFDFIESELKELVAEGVSSALPATNEYGRASKPVAWALLARLYLNSAIYRGNVDTKYYTECITACKQVISNPAFYLEPEYAKLFNADNHKRTHEILFAMVCDATTSVTWGGGTYIICGSCGNSSTQDPAKYGLSNGWGMFRARGEMTAKFGDIATTKDSRAMFYTDGQAQFFTGAIDNQAEGYFFEKFSNLTDEGVAASNSAATGCSTDYPLLRLADIYLMAAEAQLRGGTGLSRAEALELVNQVRLRAYNQDESGKISDSDFTLDFILDERARELYLESVRRTDLIRFNKFVSADYIWQWKGGVLDGRAVNKKYNIYPIPDTDLTANPNLHNPLY”, with “not soluble”; and “MSLIEENLKQKIHDKFVAAKKNGHLKVTHAESKKLKDPQTTTQYWVTFAPSLALKPDANKNSDSKAEDPFANPDEELVVTEDLNGDGEYKLLLNKFPVVPEHSLLVTSEFKDQRSALTPSDLMTAYNVLCSLQGDKDDDVTCERYLVFYNCGPHSGSSQDHKHLQIMQMPEKFIPFQDVLCNGKDHFLPTFNAEPLQDDKVSFAHFVLPLPESSDQVDEDLLAMCYVSLMQRALTFFQDWTNESPELTKSYNVLLTKKWICVVPRSHAKSGPPLMLNINSTGYCGMILVKDREKLENLTEDPHLVDKSLLQCGFPNTAGQKPTEYHYEGHHHHHH”, with “soluble”. The result for “VAAALGVKPPETATTPEIVVGRPPELCKGCGHRDMFDAINIAIKENADHHVFSDIGCYTLGALPPYNAIHTCVDMGAAITMAKGAADAGLRPAVCVIGDSTFAHSGMTGLLDAVNDRTPVTVIIADNNTTAMTGGQCSSASGSKLVNICIGLGVEEAHIRTIVPLRQHLHENVSVLRDEFAYNGVSVVIAQRECIETAAKKKRRAAASAQ” reads “not soluble”.

On to “MSLTTLTTALKAGPEAPAILHRCRELVAPALAEAVGGMHPWMREMADYALGRGAAGGAPAAHSQGKGVRQALAVLGAEAAGGPAEAGVPAAVAVELVHTFSLLHDDIMDGDAMRRGRPALWKAYGTGPAVLAGDALFALAVQTLTTASAPGAAHRLSAALGDLVRGQADDLLFAHRPWTGPEAVSVAEYEAMAEHKTGSLLGCALALGAHLAGAPEETAAVLDRTGRHLGVAFQIVDDLLGIWGDPAVTGKPVHGDLRQGKKTFPVLAALATPSGSALEGLLTARDDTAVVRAAAVVEQAGGRSAALREARRHLTVAHGLLASVQPAPRPAADLRTLLSALSRRTIEGHHHHHH”, for which the “soluble on expression in E. coli” value is listed as “soluble”. Then “MSLQINVNPQAALSQNAIVNNSSFSLVSKDVRSAQYVALVDSGRNNIEPIHPRQNVRITLENALAEQFGSQGFRLSVNSENTITLEIQELLVSVKHSIMENQMDGSVVLEITAETPRGKLVKSYTGTAKRTGVLSASNDEIETVLNDVINTVLKEIANDAELQNYMQERFNGEGHHHHHH”, with “soluble”. Then “MHENKYLTIYHDLISRIRRGEWKAYDKLPSEHELAARYETSRETIRKALHLLSEHGYIQKMKGKGSIVLDVGKYDFPVSGLVSFKELAQTMKQPVRTIVHELAIIKPDRELRQHLRASSKDEVWKVVRVREIGGERIILDKDFFLKKHVPLLTKEICEDSIYEYLETKLHLPISFAKKEISVDEATDEDRRYLDLHGDDRVVVVKNYVYLSDAALFQYTESRHRLDKFRFVDFARRK”, with “not soluble”. The result for “MGSDKIHHHHHHMSCSHEHESLLVTSPNKSAQAVADALEKHPITFSLPQQFYSDADVFQVEMEQIFYKEWLFVGITGEIPDNGNFITLDIGDNPITVIRDQNGEVRAFHNTCRHRGSKICLVKQGKVPKLVCPYHQWTYELDGNLLFAGTEMGDDFDKNDYGLHKVNCRVAGGYIFVSLSENPTNIDGFFDDLTHYLEPYDLDNCKVAVESTLIEDANWKLVIENNRECYHCSGNHPELLNTLLEWDDTEDPRASDEFKAQVAAKQAMWEAEGIPYKHVSHGHGLRNRIVRMPLLEGTVSMTIDGKAGCKKLMGRIKNPDLGSMRILHLPNSWSHAMGDHLIAFQVIPLGAQKTQVTTKWIVHKDAVEGVDYDVAQLRQVWDATNVQDRTLAENNQKGINSKAYQPGPYSTTFEFGVVNFIDWFSHTMQSNIKASAEKS” reads “not soluble”; that for “MGSDKIHHHHHHMSDLKVLVIGYMHPRNDKRVFRTVQALSKRSEVIYQYWTEKEELPFKENNIRYIPVKCSNRGNIFQKAVKRKQVDEKIRHLVETEDYDILYMHHFPATKPLKPFVVAKKRGKKIVYDIHEYHPQNFLSTLPRPLSDLKGFVMWRIFKKQLQLSDLCIFVSEETRNDVVAKTGLDPEKTFIVPNYASMKIEPDPDKKKMEIVLVGKTPRNLIHEKKLIRALVERGFSFRIIGMDSEAFSDVPHTYTSFLPYEKMMEELSKSMFSLISYKPTGKEDKNYLYSLPHKFYDSIAAGTPVIVKNSFVSMAKMVEDLGIGVVIDPANVEESLKRIENACQRYEEILENIRRHQEGFVWDEKKEEEFLERVMG”, “not soluble”; that for “MGSDKIHHHHHHMRTDMTIEQNKNRRSAASGCAIHCHDCSMGTLCIPFTLNANELDQLDDIIERKKPIQKGEQIFKSGDPLKSLFAIRSGTIKSYTITEQGDEQITGFHLAGDVIGFDGIHAQSHQSFAQALETSMVCEIPFNILDELSGTMPKLRQQIMRLMSNEIMSDQEMILLLSKKNAEERLAAFISNLANRFGNRGFSAKEFRLTMTRGDIGNYLGLTVETISRLLGRFQKSGLIEVKGKYIIIVDHHELNLLAGNARIAR”, “not soluble”. Consider “MGSDKIHHHHHHMFKDYQPKKGFDEYFSSDDFLPRSSLEPLLTSLGEMGLHQLNISHEIARKLLLRHGATFRLNDSGSKGSERILPFDPLPRVIGSLEWLGLERGLIQRLEAIDLFLADVYGKQQIINDGIIPRDFIESSDGWRPQMKGFVLPLGKWCHVSGLDLIRDGNGEWLVLEDNLRCPSGVAYFLENRLVMKRIFPSLFNGRVVRPIEDYPSYLLKSLQELAVWTDTPKVVLLTPGVFNSAYFEHSYLAQQMGIQLVEGSDLVCQNQNVYLKTTSGIKKVDVIYRRIDDDYLDPKFFRKDSMLGVPGLIDVLKKGRVAIANAPGTGLADDKLIYTFVPEMIRYYLKEEPIINNVKTYVCARSSDLSFVLENLGKLVVKSVSEAGGYGMLIGPHSSQIDIDKFSAKIKANPRNYIAQPTLDLSTVPSLSDGEVYPCHVDLRPYVLRGKNTWVSPGGLTRVALKRDSLIVNSSQGGGCKDTWVVG”, for which the “soluble on expression in E. coli” value is “not soluble”.

The values above are taken from the DeepSol protein solubility set.
